The results in this text go back to patent US20240132603A1 (HARBOUR BIOMED US, published 2024).

For orientation: EC50 means the concentration that produces a half-maximal response. As a reminder, the Kd is a measure of binding affinity in units of concentration.

In assay [1] the target is T1, human CCR8 (human, UniProt P51685 1-355).
T1 construct: whole, on cells; construct used for the overexpressing cell lines is not described; also called hCCR8
The experiment in a line: FACS, CHO-K1-hCCR8 cells. The procedure, abridged: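 Anti-CCR8 antibodies, in 5-fold serial dilution from 200 nM in DPBS with 2% FBS, were bound to detached cells for 1 h at 4 °C. A 1:1000 secondary antibody followed for 40 min at 4 °C, and binding was read by flow cytometry.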
A general note: In flow cytometry, cells or beads pass a laser one at a time.

Assay [2] has as its target T1, human CCR8. As to the kind of experiment: KinExA, cell line overexpressing human CCR8; human CCR8 cell line. As to the method: (§1) To 200 mg of PMMA hard beads was added 30 μg of Goat Anti-Human IgG Fc antibody, and the mixture was supplemented with a coating solution to 1.0 mL, with a buffer composition of 1×PBS, pH7.4, to ensure that the beads were completely suspended in the solution. After being spun at room temperature for 2 h, the beads were either allowed to settle naturally or centrifuged briefly at low speed, and the supernatant was removed. 1 mL of blocking buffer (1×PBS, pH7.4, containing 10 mg/mL BSA) was added to ensure that the beads were resuspended in the blocking solution, and the beads were spun at room temperature for 1 h. An appropriate concentration of PR005565, PR006155 or PR006166 was used as the 100% signal value, and PBS blank was used as the background value. The net signal values were detected using 0.5 μg/mL Alexa Fluor® 647 Goat Anti-Human IgG. The cell line overexpressing human or monkey CCR8 was collected by centrifugation at 1500 g for 5 min, washed 2 times with 2 PBS and centrifuged at 350 g. The cells were collected in a 1.5 mL centrifuge tube. 10 mL of 0.2 nM PR005565, PR006155 or PR006166 solution was prepared. The total cells were supplemented with 0.2 nM PR005565, PR006155 or PR006166 solution to 0.82 mL, and diluted in a 2-fold gradient with 0.2 nM PR005565, PR006155 or PR006166 as a buffer. […]
(In general: In KinExA the mixture passes briefly over coated beads that capture the unbound partner.)

Assay [3] has as its target T2, cynomolgus monkey CCR8 (cynomolgus monkey, UniProt G7NYJ2 1-355).
T2 construct: whole, on cells; also called CynoCCR8
The experiment in a line: KinExA, cell line overexpressing monkey CCR8; monkey CCR8 cell line. As to the method: as §1

T1 sequence (P51685 whole entry): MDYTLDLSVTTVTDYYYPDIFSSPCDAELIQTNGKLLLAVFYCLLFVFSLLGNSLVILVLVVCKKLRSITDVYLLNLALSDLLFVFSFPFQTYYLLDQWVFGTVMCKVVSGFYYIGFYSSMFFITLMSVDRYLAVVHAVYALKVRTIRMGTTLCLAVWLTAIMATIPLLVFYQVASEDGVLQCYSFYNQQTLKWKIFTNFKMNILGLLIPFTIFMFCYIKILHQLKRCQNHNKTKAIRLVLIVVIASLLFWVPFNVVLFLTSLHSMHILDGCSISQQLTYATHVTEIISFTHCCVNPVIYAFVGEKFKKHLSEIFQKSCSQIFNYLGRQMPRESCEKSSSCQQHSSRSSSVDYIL
T2 sequence (G7NYJ2 entry or part of it): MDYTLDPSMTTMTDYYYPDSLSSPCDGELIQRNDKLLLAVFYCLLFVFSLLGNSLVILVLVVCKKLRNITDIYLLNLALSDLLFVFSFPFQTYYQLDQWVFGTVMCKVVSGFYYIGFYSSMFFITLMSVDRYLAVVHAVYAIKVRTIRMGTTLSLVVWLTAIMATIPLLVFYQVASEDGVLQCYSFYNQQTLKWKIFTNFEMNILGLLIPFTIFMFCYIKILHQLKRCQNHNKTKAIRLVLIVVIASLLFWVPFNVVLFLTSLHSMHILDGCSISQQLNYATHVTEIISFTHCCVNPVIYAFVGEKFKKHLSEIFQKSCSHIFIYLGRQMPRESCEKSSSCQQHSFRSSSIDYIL

B1: PR005565 (antibody, human IgG1, kappa)
heavy: not shown
light: DIVMTQSPLSLPVTLGQPASISCRSSKSLLHSNAKIYLYWFQQRPGQSPRLLIYRMSNLASGVPDRFSGSGSGTDFTLKISRVEAEDVGVYYCMQHLEYPLTFGQGTKLEIKRTVAAPSVFIFPPSDEQLKSGTASVVCLLNNFYPREAKVQWKVDNALQSGNSQESVTEQDSKDSTYSLSSTLTLSKADYEKHKVYACEVTHQGLSSPVTKSFNRGEC
notes: IgG1 constant region; same VH/VL as PR004666
The molecule B1 gave an EC50 in assay [1] of 0.42 nM. Besides, the Kd was 0.13 nM in assay [2] and 0.177 nM in assay [3].
